Test results reported in paper PMC6915384, “Kinetic Parameter Estimation and Mathematical Modelling of Lipase Catalysed Biodiesel Synthesis in a Microreactor” (Micromachines, 2019).

Substrate: CO
Test: initial rates of FAME formation in PTFE microreactor, GC; non-linear regression
Type: biochemical, Thermomyces lanuginosus
Settings: transesterification, co-substrate sunflower oil (fatty acids constant; printed 1,488.15 mg/L), 40 °C, 0.01 mol/L potassium phosphate pH 7.4, double-substrate Michaelis-Menten, methanol range printed a

B1: lipase from Thermomyces lanuginosus (Lipolase 100L; Lipolase L100; TlL) (Thermomyces lanuginosus) (protein)
chain: EVSQDLFNQFNLFAQYSAAAYCGKNNDAPAGTNITCTGNACPEVEKADATFLYSFEDSGVGDVTGFLALDNTNKLIVLSFRGSRSIENWIGNLNFDLKEINDICSGCRGHDGFTSSWRSVADTLRQKVEDAVREHPDYRVVFTGHSLGGALATVAGADLRGNGYDIDVFSYGAPRVGNRAFAEFLTVQTGGTLYRITHTNDIVPRLPPREFGYSHSSPEYWIKSGTLVPVTRNDIVKIEGIDATGGNNQPNIPDIPAHLWYFGLIGTCL
notes: commercial liquid preparation Lipolase 100L (Sigma-Aldrich), free enzyme in phosphate buffer; mass 33,400 g/mol used for calculations (cited)
For B1, the Km was 7.56 ± 2.77 mg/mL.
